Assay results as given in a protein production outcome set (Wang et al. 2014).

Experiment: label from the status in PepcDB records

Sequence | protein production
ADNRAKKHGHADLSIYREWVDEHPTVFTGYDELTTDSKVLGLLSAGNKVNEIKAGEEVEVILEASPLYAEAGGQLGDRGQILMGDTVLKVNDVQKIGKKLWVHKATVAQGGLSVGDVVTAQVDSDWRHAARQAHTGTHLIHAALRQVLGPTAVQAGSMNKPGYLRFDFNYTESLTPRQLEEIQNITNQAVDSDWDVNTIETSLEEAKAMGALALFGENYGSEVRVIEVGGPFSIELCGGTHVTHSSQIGPVAILGESSVGSGVRRIEAYTGLDSFKYLAKEQALVENIASSMKVKPEELPDRIAALTQKLKDAEKAIADMRSAQLMAQATGLVAGAIEVNGVKLVAQRVSDVENMGDLRSLAADIKQRLDDVPAVVALVGEDASGKAPFVVGATKAAVSAGYKANAYAKILGQYIEGNGGGKPDMAQGSARNSSGFDQGIAAVKAEMSA | failed
STSPEIASLSWGQMKVKGSNTTYKDCKVWPGGSRTWDWRETGTEHSPGVQPADVKEVVEKGVQTLVIGRGMSEALKVPSSTVEYLKKHGIDVRVLQTEQAVKEYNALVAQGVRVGGVFHSTC | not failed
MKKIAVFADVQNLYYTVRQAYGCHFNYAALWADISKRGEIVHAFAYAIDRGDSKQQQFQQILRNLGFTVRLKPYIQRSDGSAKGEWDVGITIDIMDFAPQVDEVVLASGDGDFDMLLDRVISKHGVEAVAYGVPGLTANSLIRAASRYVPIEGALL | not failed
MNKRCEEVLRRYFAEVPFIIEKACELAESMLGEGSHGLSHTIRVLDLALQIGRVEGANLEVLALAAILHDIARPLEDKGRIKDHAQEGARIVRSFLSKLRYPHVDEVAHAIEAHRFSTNIEPRTLEAKILSDADKIDALGAIGIARVFMYAGEKGRSIEDSIKHFEEKILRLKDLMYTETGKRIAQERHKIVEEFVNILKKELILEHHHHHH | not failed
MGGGEVKMMSLLEEMKGIYSKKGGKVKPFEKFEGELKEGYRFEYEKKLCEIDVAMFGLISGDLNPVHFDEDFASKTRFGGRVVHGMLTTSLVSAAVARLPGTVVLLEQSFRYTSPVRIGDVVRVEGVVSGVEKNRYTIDVKCYTGDKVVAEGVVKVLIW | not failed
MYDYSILPNRIILCVDLRSFYASVSCIKMGLDPMHTKLAVVGDVNRNGSIVLAATPPLKALGVKKMARLYEIPRRKDILVVNPIMSTYIKCSNYITKLALQYVPIEDFHQYSIDEFFMDITDSIHLFAQDPYEFAMKFKREIYDHTRIECTIGIAPNPLMSKVALDIEAKKNKDGIAFWQYEDIPTKLWSIRPLNKFWGISYKTEEKLNRKGIYSIGDLANYPLKYLKQSFGKIGEELHLHSHGIDFSRISEKYVPATTSIGKSQILMRDYTIEEFPIILLEHIEEVCYRLRRQTKLAQTIHFSVGYSKSYTGGIRKTHTLNRPTNLTMDIYHICTYFLHQQYTGEPIRSINISLTNLIQEGEEQISLFDNVTKREQEMKLTKVMDEIRTKFGKNSILRGISYTHSATARHRNTLIGLEHHHHHH | failed
MEEHGHHEMEGTPLGCHSHIKLLKINREHLVTNIRNTQCLVDNLLENGYFSAEDAEIVCACPTKPDKVRKILDLVQSKGEEVSEFFLYVLQQLEDAYVDLRLWLSEIGFSPSQLIRTKTIVNTDPVSRYTQQLRHQLGRDSKFMLCYAQKEDLLLEETYMDTLMELVGFNNENLGSLGGLDCLLDHSTGVLNEHGETVFVFGDAGVGKSMLLQRLQSLWASGRLTSTAKFFFHFRCRMFSCFKESDMLSLQDLLFKHFCYPEQDPEEVFSFLLRFPHTALFTFDGLDELHSDFDLSRVPDSCCPWEPAHPLVLLANLLSGRLLKGAGKLLTARTGVEVPRQLLRKKVLLRGFSPSHLRAYARRMFPERTAQEHLLQQLDANPNLCSLCGVPLFCWIIFRCFQHFQTVFEGSSSQLPDCAVTLTDVFLLVTEVHLNRPQPSSLVQRNTRSPAETLRAGWRTLHALGEVAHRGTDKSLFVFGQEEVQASKLQEGDLQLGFLRALPDVGPEQGQSYEFFHLTLQAFFTAFFLVADDKVSTRELLRFFREWTSPGEATSSSCHSSFFSFQCLGGRSRLGPDPFRNKDHFQFTNLFLCGLLAKARQKLLRQLVPKAILRRKRKALWAHLFASLRSYLKSLPRVQSGGFNQVHAMPTFLWMLRCIYETQSQKVGRLAARGISADYLKLAFCNACSADCSALSFVLHHFHRQLALDLDNNNLNDYGVQELQPCFSRLTVIRLSVNQITDTGVKVLCEELTKYKIVTFLGLYNNQITDIGARYVAQILDECRGLKHLKLGKNRITSEGGKCVALAVKNSTSIVDVGMWGNQIGDEGAKAFAEALKDHPSLTTLSLAFNGISPEGGKSLAQALKQNTTLTVIWLTKNELNDESAECFAEMLRVNQTLRHLWLIQNRITAKGTAQLARALQKNTAITEICLNGNLIKPEEAKVFENEKRIICF | failed
MTQSQTNDGAGAGAVTTVESVPPQPQSQPQPQPQQQSNEMVLHTGSLSFSSHMSREDEEMTRSALSAFRAKEDEIEKRRMEVRERIQAQLGRVEQETKRLSTIREELESMADPRIWPSELESMADPMRKEVSVVRKKIDSVNKELKPLGSTVQKKAEQNSIFGNEMKQEREYKEALDTFNEKNREKVQLITKLMEMEQLVGESEKLRMIKLEELSKSIETV | not failed
MRAEADPEFAAVAERIHANVGRQGFMNLVGAELSELSRGTCTIAVERRPELLQQHGFFHGGVTAFLVDNATTIAAATSRGQPALTAEYKLNLLSPAVGEKLICRARVIKPGRQVSVVAADVFCVSDGVEKHTATALASIAMLSEDVAAKTKSPAA | failed
HARKSLTVLVVGESARAENFGILGYGRNTTPNLNKENGLVAFTDVYSCGTETAVSVPCMFSNMGRKNYNATKARNQEGLLDVLKHAGIEVAWRDNQSGCKGTCDRVTFQDVSNLTDPLLCNSHECRDEILLQNLQGFIDSLDKDTVLVLHQMGSHGPEYYKRYPKEFEKFTPVCESNALNNCSRDSIVNAYDNTLLYTDHVLSTLIDLLRSNQAKVDTAMVYLSDHGESLGEYNLFLHGTPYVLAPDQQKHVPMLIWLSDTYQKSFAVTPDCLAKQRNAPLSQDNLFHSMLGLLKVDTKVY | failed
MSLEKLDTNTFEQLIYDEGKACLVMFSRKNCHVCQKVTPVLEELRLNYEESFGFYYVDVEEEKTLFQRFSLKGVPQILYFKDGEYKGKMAGDVEDDEVEQMIADVLED | not failed
MDQLFRYPLHQIPLVAMAIIIALSVHEFAHAYVAYKFGDDTAKRQGRLTLSPMAHLDPIGMIAVLILGFGWARRVPVNPYNFKRPRLAGILVSIAGPISNLILSAIGLIIWYSLLTFGVLDSIPFAVADTLAQFFQIFIMLNIVLLVFNLLPIPPLDGYRVVEDLAPTNIRAKMTQYEKYGAIALLILVITPLSNYTIQPIFSVVIPYVFAFLNSIIAPIFGLL | failed
MRDYSELEIFEGNPLDKWNDIIFHASKKLSKKELERLLELLALLETFIEKEDLEEKFESFAKALRIDEELQQKIESRKTDIVIQSMANILSGNE | not failed
MNRVKDKRLWLSIVGITGLGLLSGLFSVNAREYYQALRLPSFAPPGWLFGPVWLVLYIFMGITFYFILVHPNKQQKKRMITLFILQFIANFFWTFFFFSLQNNLLSVIDISLLWLLLIIQQWDYLRYKLITRGWLMIPYILWVTFAAALNYSILFLN | not failed
MPGWHALTKPARFRYPEGLHGREIRVEFIDNIRYKKIKNAVGRAVADFGLIRDGDRIAVAVSGGKDSYTLLHILEGLRRRAPVKYELVAVTIDSGYPGFRSDVIASYLREQGFAHHLETTDHYDIIREKRRPGSSYCSICARLKRGVLYTLAQKLGCNKLALGHHLDDFVETLLLNQFFVGTLKAMAPRMLADNGETTVIRPLVYVEEREIIPFARENRFPVVCCSCPVCGTADLQRRRMKKLLTELEKENPAVKRSLLRALGNVQPRYLLDLELQRLCDVP | failed
MSIADAEFAQAKTAQSAPTAAKPQLPPGVVTEGPLVKAKLRESYLLLGILYVGAVAGIIWAVTQGVGKVELFTFAWMFALTTFGIGAGMHRLFVHRSFRTGPIMRVFFCAIAQMAVQGSIAKWVANHRRHHLYADDVGDPHSPQFDGFGNRYVSALKGFLHAQGSWVFDQATTDNEYYAKDILADPIAMFFVRTRWVWYGMSAVFIPGFIGYVFGGVHTMIGCVLFSGLLRAYLLILVSQLTGSVCHAYGYRRFEVDDASTNEFVTTILTFGEGLHNNHHRFPRDAYISHAWWEIDLNGLIILGMEKIGLVHDVFHASHRQLERASEAQAASTR | failed
MTQDEQICSLALTRIPGLGPTGAFRLVSSLGSATRVFEHRKELSQLVPGVSEKIITALNNSEAFRRAEQELTFCEKNHIRCLTLNDEGYPGRLRECDDAPLALFYRGNADLNALHVINMVGTRHATPYGQDICTRFLADLSVLCPNALIVSGLAYGIDIHAHRAALQNHFKTIGVLAHGLDRIYPAEHRKTAVSMLEQGGLLTEFTSGTNPDRQNFVKRNRIVAGMSDATVVIESAAKGGALITAELAESYHRDCFAFPGRCNDEYSIGCNNLIRKNQAVLITSAEDLVKAMGWESSPKTEKTVQRELFPDLSEEEERIVKRLGKMSEGLQINTLVIDTNIPVNRMSALLFELEMKGVIRALAGGVYRLIM | not failed
MDFRALALSLLLWLVPLWACANDQLDKLTQQVYQYPTKALAQITELEKQQQTDNTSNIDKLRLSILKCQNLLQLGENEAAINLAQMGEAHAKQLKLDQARPYFFNCQADAYLNYDNIQDALPLLDSAITLARRYQQPQALIDALRLRGQLDTNTDNFSSAIEDLRIAIDIYPDIHTQTQNWIWPPEAVGSPHNS | failed
MCDRTSKNENRILTISALLASGFAAGGMVLGLLVGSIVIVFDGVYSLVSLLLTLLSLAASSYISKPSKSVFPFGKAVLEPIVIAIKAAVILVVVCFSLYSAISALMTGGREVDTSIATIFGLVNVIGCGYAWWFMAKKSRRFSSGLIDAEKKQWQMDTLLSVAVTVGFIAAWLVSLTPFAHYAVYADPMMMLLMGFYFLKVPFDMLCGALRELLMMTPSKELCQVVGNDVLEIEKVSDHQLKLAGITKVGQELRVNIDLHVDDDMIELDTLEQTRKQLTTRLSKHRFKLQLNLNVANC | failed
MQNIILTTKKIFRLAFILILIAATFMSCKTAPAKEETLIDLIKAGKSEELQERLNSSAINMKDEEGNSLLHIAAVKNDPIIVRLLINMDADIEAKNNTGATPLAAALNNSAYDAVKVLVEYNANIFAKDNEGEKPFDTACKNNVPNLILTAQTIKQKDENQDTVLHLAVKAMDKQLTKQILAIAPPETVYNKENLSPLAIAYKHNNAEDSAEIASILLLAGIQPMGKDFAEFETASLARNYSMRFADGETLLHIFARKGYTGFLKFLIKNKVPIDVKDISSSTAMQEAVYNGNTEAAILLLQAGADPNSRNSSGNTALHLVMPEASRSKLFNELITAGANPNLKDNYGETPLHVAARIGMNDDILDQLLKAGADINERNKKGQTPLILAIDRNQTQQVDFLINHGADIHAEDKSGESAFIHSLSMGLPMVEHVVTEKNSTERDSNGSTPLHLAVSHRASSDIIYYLVEKKSLINTRNKLGNTPLHIAAEKNYREAGEILIANNADIFYANLNGDSPLKFALTLREGREDWMINSHTIGAGDGAGNTPLHLAAEWQILPMIPYLIDKGADINARNTNNETPLFNAVRTDSPEAIKALLGEGVSKKADLDARDFLGNTILHAAVRWSAYKAADFILSKDTEEYVRLINAKNLAGKTVLHEAAKQGEIKFINIFLKAKVDVNAADETGRSPLSEAVLANQTQAIDLLLKNGASPVQQDMYGRTALHEAVEISEESIILVRNAGGNPLTKDAYGKTPFSLALNKNIRTVDLVLGNDSLLADTDGDTPLHIAVKERVSLDYFQRIMKKKYPVNKRNKNGETALLLAIQNSQKEITRALLAGGADPFIVNNKGVSAITEIFMHHPDFTPIAAEFSLKQTDTLGEGMLHYAAKFADVQTLKDILALPGIKLDVKNTAGETPYQVALRWNRSEIAELLKTE | failed
MKDIVIIGTENIGKEVVKIIEAINSKRNTWNVLGFISLKKDEEGSNIEGYSVLESIDSMFNYFEGRKKDKFYFFKKLESQNELFTIIAIDNCKLKKEIENKLKNKIKFATIIHPDVSFFNKQEVGEGTIIYPGLIVVGRFKLGKHVILKQKCSLGNNIEIGDYSFISFNSNIDSNVMVKEGSYIEANTTILANSNIDKNTYIKEGSILY | failed
